This is an account of results in patent US20060241289A1 (RSR, published 2006).

Assay [1] concerns the target TSH receptor coated onto plastic tubes or ELISA plate wells (RSR Ltd) / detergent solubilised TSH receptor. Briefly: Scatchard analysis, TSH receptors coated onto plastic tubes.
Assay [2] deals with T1, TSH receptor coated onto plastic tubes or ELISA plate wells (RSR Ltd) / detergent solubilised TSH receptor.
T1 construct: also called TSHR coated tubes; TSH receptor coated tubes
Kind of assay: Scatchard analysis, 125I-IgG on TSH receptor coated tubes. The procedure: Unlabelled IgG or Fab in 50 μL of assay buffer and 50 μL of ¹²⁵I-labelled hMAb IgG or Fab (30,000 cpm in assay buffer) were incubated for 2 hours at room temperature with gentle shaking, washed twice with 1 mL of assay buffer and counted in a gamma counter.

B1: 9D33 (antibody, V domains shown)
VH: DVQIQQPGTELVKPGASVRLSCKASGYTFTTYWMHWVKQRPGQGLEWIGEIDPSDSYTNYNQKFKGKATLTVDKSSSTAYMHLSSLTSEDSAVYYCSRNYGSGYYFDYWGQGTTLTVSS
VL: GVEMTQSPAIMSASPGEKVTMTCSASSSVSYMHWYQQKSGTSPKRWIYDTSKLASGVPARFSGSGSGTSYSLTISSMETEDAATYYCQQWSSNPWTFGGGTKLEIK
notes: Mouse monoclonal IgG; also called 9D33 IgG; mouse monoclonal antibody to the TSHR (9D33)
In assay [1], B1 returned a Ka of 2e+10 M⁻¹.

B2: hMAb TSHR1 IgG (antibody, V domains shown)
VH: QVQLVQSGAEVKKPGESLKISCRGSGYRFTSYWINWVRQLPGKGLEWMGRIDPTDSYTNYSPSFKGHVTVSADKSINTAYLQWSSLKASDTGMYYCARLEPGYSSTWSVNWGQGTLVTVSS
VL: LTVLTQPPSVSGAPRQRVTISCSGNSSNIGNNAVNWYQQLPGKAPKLLIYYDDQLPSGVSDRFSGSRSGTSASLAIRGLQSEDEADYYCTSWDDSLDSQLFGGGTRLTVLG
notes: also called human monoclonal TSH receptor autoantibody; TSMAb TSHR1 IgG
On to B2, for which the Ka in assay [2] came to 5e+10 M⁻¹.
